Here are results for one molecule from US20240336672A1.

Holding throughout (conditions): remark: other sources report otherwise
Assay [1] addresses T1, SARS-CoV-2 Spike ectodomain (tri-S), Wuhan (SARS-CoV-2), P0DTC2. As to the kind of experiment: SPR (Biacore), IgG immobilized, viral protein as analyte.
Assay [2] concerns the target T1, SARS-CoV-2 Spike ectodomain (tri-S), …. As to the kind of experiment: biotinylated tri-S on immobilised ACE2, competition ELISA.
For assay [3], the target named is SARS-CoV-2 RBD (B.1.1.7) domain (SARS-CoV-2). As to the kind of experiment: RBD-ACE2 competition ELISA. Also noted: unit not given beside the values.
Assay [4] concerns the target SARS-CoV-2 RBD (B.1.351) domain (SARS-CoV-2). Put plainly: RBD-ACE2 competition ELISA. The arrangement: unit not given beside the values.
Assay [5] has as its target SARS-CoV-2 RBD (P.1) domain (SARS-CoV-2). As to the kind of experiment: RBD-ACE2 competition ELISA. Also noted: unit not given beside the values.
Assay [6] has as its target T1, SARS-CoV-2 Spike ectodomain (tri-S), …. Put plainly: competition ELISA vs bio-Cv2.3194.
For assay [7] the target is unchanged. Put plainly: competition ELISA vs bio-Cv2.3235.
Assay [8] has the same target. Put plainly: tri-S capture ELISA.

B1: Cv2.3194 (recombinant human IgG1) (antibody)
heavy: EVQLVESGGGLIQPGGSLRLSCAASGITVTSNYMSWVRQAPGKGLEWVSVIYPGGSTFYADSVKGRFTISRDNSKNTLYLQMNSLRAEDTAVYYCARDLVVYGMDVWGQGTTVTVSSASTKGPSVFPLAPSSKSTSGGTAALGCLVKDYFPEPVTVSWNSGALTSGVHTFPAVLQSSGLYSLSSVVTVPSSSLGTQTYICNVNHKPSNTKVDKKVEPKSCDKTHTCPPCPAPELLGGPSVFLFPPKPKDTLMISRTPEVTCVVVDVSHEDPEVKFNWYVDGVEVHNAKTKPREEQYNSTYRVVSVLTVLHQDWLNGKEYKCKVSNKALPAPIEKTISKAKQPREPQVYTLPPSRDELTKNQVSLTCLVKGFYPSDIAVEWESNGQPENNYKTTPPVLDSDGSFFLYSKLTVDKSRWQQGNVFSCSVMHEALHNHYTQKSLSLSPGK
light: EIVLTQSPGTLSLSPGERATLSCRASQSVSSSYLAWYQQKPGQAPRLLIYGASSRATGIPGRFSGSGSGTDFTLTISRLEPEDFAIYYCQQGVTFGGGTKVEIKRTVAAPSVFIFPPSDEQLKSGTASVVCLLNNFYPREAKVQWKVDNALQSGNSQESVTEQDSKDSTYSLSSTLTLSKADYEKHKVYACEVTHQGLSSPVTKSFNRGEC
In turn, B1 registered a Kd in assay [1] of 0.459 nM. The koff in assay [1] is 0.00112 s⁻¹. Moreover, in assay [1], the kon was 2.45e+06 M⁻¹ s⁻¹. In assay [2], the EC50 came to 0.31 µg/mL. The AUC (RBD block.) was 294 in assay [3], 335 in assay [4] and 279 in assay [5]. The % inhibition (competition) in assay [6] is 86; in assay [7], 97. The molecule further gave a triS Capt-ELISA in assay [8] of 2.3.
